Reverse-splicing fitness data for 30 variants are collected here from the RNAGym collection of RNA variant scans (doi:10.1093/molbev/msab373).

B1: Azoarcus group I ribozyme (parent)
chain: GUGCCUUGCGCCGGGAAACCACGCAAGGGAUGGUGUCAAAUUCGGCGAAACCUAAGCGCCCGCCCGGGCGUAUGGCAACGCCGAGCCAAGCUUCGGCGCCUGCGCCGAUGAAGGUGUAGAGACUAGACGGCACCCACCUAAGGCAAACGCUAUGGUGAAGGCAUAGUCCAGGGAGUGGCGAAAGUCACACAAACCGG

The series covers variants of B1. Briefly: reverse-splicing fitness (ratio to wild type); higher = more active; in vitro selection; Mg2+ level not given. The procedure, abridged:
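An in vitro group I ribozyme library with randomized positions was T7-transcribed and gel-purified. In triplicate, 10 pmol RNA in EPPS pH 7.5 was reacted with 50 pmoles of a 30-nt RNA substrate for 1 h at 37 °C across several added MgCl2 levels (1–48 mM), then stopped with EDTA. Products were reverse transcribed from a substrate-complementary primer, PCR-amplified and sequenced (HiSeq 4000). Fitness is a variant's read proportion after selection over that before, normalised to wild type.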
GUGCCUUGCGCCGGGAAACCACGCAAGGGAUGGUGUCAAAUUCGGCGAAACCUAAGCGCCCGCCCGGGCGUAUGGCAACGCAGAGCCAAGCUUCGGCGCCUGCGCCGAUGCAGGUGUAGAGACUAGACGGCACCCACCUAAGGCUAACGGUAUGGUGAAGGCAUAGUCAAGGGAGAGGCGAAAGUCACACAAACCGG: the reverse-splicing fitness was found to be 0.0098.

As to GUGCCUUGCGCCGGGAAACCACGCAAGGGAUGGUGUCAAAUUCGGCGAAACCUAAGCGCCCGCCCGGGCGUAUGGCAACGCUGAGCCAAGCUUCGGCGCCUGCGCCGAUGUAGGUGUAGAGACUAGACGGCACCCACCUAAGGCUAACGGUAUGGUGAAGGCAUAGUCGAGGGAGUGGCGAAAGUCACACAAACCGG, the reverse-splicing fitness amounted to 0.0071.

Turning to GUGCCUUGCGCCGGGAAACCACGCAAGGGAUGGUGUCAAAUUCGGCGAAACCUAAGCGCCCGCCCGGGCGUAUGGCAACGCUGAGCCAAGCUUCGGCGCCUGCGCCGAUGUAGGUGUAGCGACUAGACGGCACCCACCUAAGGCCAACGUUAUGGUGAAGGCAUAGUCUAGGGAGCGGCGAAAGUCACACAAACCGG, the reverse-splicing fitness is 0.0108.

For the variant GUGCCUUGCGCCGGGAAACCACGCAAGGGAUGGUGUCAAAUUCGGCGAAACCUAAGCGCCCGCCCGGGCGUAUGGCAACGCGGAGCCAAGCUUCGGCGCCUGCGCCGAUGGAGGUGUAGAGACUAGACGGCACCCACCUAAGGCGAACGGUAUGGUGAAGGCAUAGUCGAGGGAGCGGCGAAAGUCACACAAACCGG, the reverse-splicing fitness worked out at 0.0126.

Take GUGCCUUGCGCCGGGAAACCACGCAAGGGAUGGUGUCAAAUUCGGCGAAACCUAAGCGCCCGCCCGGGCGUAUGGCAACGCCGAGCCAAGCUUCGGCGCCUGCGCCGAUGGAGGUGUAGAGACUAGACGGCACCCACCUAAGGCUAACGUUAUGGUGAAGGCAUAGUCCAGGGAGAGGCGAAAGUCACACAAACCGG: the reverse-splicing fitness is 0.677.

With GUGCCUUGCGCCGGGAAACCACGCAAGGGAUGGUGUCAAAUUCGGCGAAACCUAAGCGCCCGCCCGGGCGUAUGGCAACGCCGAGCCAAGCUUCGGCGCCUGCGCCGAUGAAGGUGUAGAGACUAGACGGCACCCACCUAAGGCAAACGGUAUGGUGAAGGCAUAGUCGAGGGAGCGGCGAAAGUCACACAAACCGG, the reverse-splicing fitness was determined as 0.0077.

With GUGCCUUGCGCCGGGAAACCACGCAAGGGAUGGUGUCAAAUUCGGCGAAACCUAAGCGCCCGCCCGGGCGUAUGGCAACGCUGAGCCAAGCUUCGGCGCCUGCGCCGAUGUAGGUGUAGAGACUAGACGGCACCCACCUAAGGCUAACGAUAUGGUGAAGGCAUAGUCAAGGGAGCGGCGAAAGUCACACAAACCGG, the reverse-splicing fitness was determined as 0.00929.

As for GUGCCUUGCGCCGGGAAACCACGCAAGGGAUGGUGUCAAAUUCGGCGAAACCUAAGCGCCCGCCCGGGCGUAUGGCAACGCAGAGCCAAGCUUCGGCGCCUGCGCCGAUGGAGGUGUAGCGACUAGACGGCACCCACCUAAGGCAAACGGUAUGGUGAAGGCAUAGUCGAGGGAGCGGCGAAAGUCACACAAACCGG, the reverse-splicing fitness turned out to be 0.00485.

As for GUGCCUUGCGCCGGGAAACCACGCAAGGGAUGGUGUCAAAUUCGGCGAAACCUAAGCGCCCGCCCGGGCGUAUGGCAACGCAGAGCCAAGCUUCGGCGCCUGCGCCGAUGUAGGUGUAGUGACUAGACGGCACCCACCUAAGGCCAACGUUAUGGUGAAGGCAUAGUCUAGGGAGGGGCGAAAGUCACACAAACCGG, the reverse-splicing fitness came to 0.00236.

In the case of GUGCCUUGCGCCGGGAAACCACGCAAGGGAUGGUGUCAAAUUCGGCGAAACCUAAGCGCCCGCCCGGGCGUAUGGCAACGCAGAGCCAAGCUUCGGCGCCUGCGCCGAUGAAGGUGUAGGGACUAGACGGCACCCACCUAAGGCGAACGAUAUGGUGAAGGCAUAGUCGAGGGAGUGGCGAAAGUCACACAAACCGG, the reverse-splicing fitness turned out to be 0.0104.

Take GUGCCUUGCGCCGGGAAACCACGCAAGGGAUGGUGUCAAAUUCGGCGAAACCUAAGCGCCCGCCCGGGCGUAUGGCAACGCCGAGCCAAGCUUCGGCGCCUGCGCCGAUGCAGGUGUAGGGACUAGACGGCACCCACCUAAGGCAAACGCUAUGGUGAAGGCAUAGUCCAGGGAGCGGCGAAAGUCACACAAACCGG: the reverse-splicing fitness was determined as 0.0417.

Regarding GUGCCUUGCGCCGGGAAACCACGCAAGGGAUGGUGUCAAAUUCGGCGAAACCUAAGCGCCCGCCCGGGCGUAUGGCAACGCGGAGCCAAGCUUCGGCGCCUGCGCCGAUGUAGGUGUAGAGACUAGACGGCACCCACCUAAGGCCAACGGUAUGGUGAAGGCAUAGUCGAGGGAGCGGCGAAAGUCACACAAACCGG, the reverse-splicing fitness came out at 0.00772.

For GUGCCUUGCGCCGGGAAACCACGCAAGGGAUGGUGUCAAAUUCGGCGAAACCUAAGCGCCCGCCCGGGCGUAUGGCAACGCAGAGCCAAGCUUCGGCGCCUGCGCCGAUGAAGGUGUAGAGACUAGACGGCACCCACCUAAGGCUAACGGUAUGGUGAAGGCAUAGUCAAGGGAGUGGCGAAAGUCACACAAACCGG, the reverse-splicing fitness was found to be 0.00902.

Take GUGCCUUGCGCCGGGAAACCACGCAAGGGAUGGUGUCAAAUUCGGCGAAACCUAAGCGCCCGCCCGGGCGUAUGGCAACGCGGAGCCAAGCUUCGGCGCCUGCGCCGAUGUAGGUGUAGCGACUAGACGGCACCCACCUAAGGCUAACGUUAUGGUGAAGGCAUAGUCGAGGGAGGGGCGAAAGUCACACAAACCGG: the reverse-splicing fitness was determined as 0.00568.

For GUGCCUUGCGCCGGGAAACCACGCAAGGGAUGGUGUCAAAUUCGGCGAAACCUAAGCGCCCGCCCGGGCGUAUGGCAACGCUGAGCCAAGCUUCGGCGCCUGCGCCGAUGCAGGUGUAGUGACUAGACGGCACCCACCUAAGGCCAACGGUAUGGUGAAGGCAUAGUCCAGGGAGAGGCGAAAGUCACACAAACCGG, the reverse-splicing fitness worked out at 0.00275.

In the case of GUGCCUUGCGCCGGGAAACCACGCAAGGGAUGGUGUCAAAUUCGGCGAAACCUAAGCGCCCGCCCGGGCGUAUGGCAACGCUGAGCCAAGCUUCGGCGCCUGCGCCGAUGCAGGUGUAGAGACUAGACGGCACCCACCUAAGGCAAACGAUAUGGUGAAGGCAUAGUCUAGGGAGUGGCGAAAGUCACACAAACCGG, the reverse-splicing fitness was found to be 0.0106.

For GUGCCUUGCGCCGGGAAACCACGCAAGGGAUGGUGUCAAAUUCGGCGAAACCUAAGCGCCCGCCCGGGCGUAUGGCAACGCCGAGCCAAGCUUCGGCGCCUGCGCCGAUGCAGGUGUAGUGACUAGACGGCACCCACCUAAGGCUAACGCUAUGGUGAAGGCAUAGUCGAGGGAGGGGCGAAAGUCACACAAACCGG, the reverse-splicing fitness worked out at 0.00209.

GUGCCUUGCGCCGGGAAACCACGCAAGGGAUGGUGUCAAAUUCGGCGAAACCUAAGCGCCCGCCCGGGCGUAUGGCAACGCAGAGCCAAGCUUCGGCGCCUGCGCCGAUGAAGGUGUAGGGACUAGACGGCACCCACCUAAGGCAAACGAUAUGGUGAAGGCAUAGUCGAGGGAGGGGCGAAAGUCACACAAACCGG: the reverse-splicing fitness was found to be 0.00524.

Turning to GUGCCUUGCGCCGGGAAACCACGCAAGGGAUGGUGUCAAAUUCGGCGAAACCUAAGCGCCCGCCCGGGCGUAUGGCAACGCGGAGCCAAGCUUCGGCGCCUGCGCCGAUGGAGGUGUAGUGACUAGACGGCACCCACCUAAGGCUAACGCUAUGGUGAAGGCAUAGUCCAGGGAGUGGCGAAAGUCACACAAACCGG, the reverse-splicing fitness amounted to 0.0713.

Take GUGCCUUGCGCCGGGAAACCACGCAAGGGAUGGUGUCAAAUUCGGCGAAACCUAAGCGCCCGCCCGGGCGUAUGGCAACGCUGAGCCAAGCUUCGGCGCCUGCGCCGAUGUAGGUGUAGUGACUAGACGGCACCCACCUAAGGCUAACGAUAUGGUGAAGGCAUAGUCAAGGGAGUGGCGAAAGUCACACAAACCGG: the reverse-splicing fitness came out at 0.00215.

Turning to GUGCCUUGCGCCGGGAAACCACGCAAGGGAUGGUGUCAAAUUCGGCGAAACCUAAGCGCCCGCCCGGGCGUAUGGCAACGCCGAGCCAAGCUUCGGCGCCUGCGCCGAUGUAGGUGUAGGGACUAGACGGCACCCACCUAAGGCAAACGUUAUGGUGAAGGCAUAGUCGAGGGAGUGGCGAAAGUCACACAAACCGG, the reverse-splicing fitness came to 0.112.

Regarding GUGCCUUGCGCCGGGAAACCACGCAAGGGAUGGUGUCAAAUUCGGCGAAACCUAAGCGCCCGCCCGGGCGUAUGGCAACGCAGAGCCAAGCUUCGGCGCCUGCGCCGAUGAAGGUGUAGGGACUAGACGGCACCCACCUAAGGCAAACGGUAUGGUGAAGGCAUAGUCCAGGGAGUGGCGAAAGUCACACAAACCGG, the reverse-splicing fitness is 0.00747.

Regarding GUGCCUUGCGCCGGGAAACCACGCAAGGGAUGGUGUCAAAUUCGGCGAAACCUAAGCGCCCGCCCGGGCGUAUGGCAACGCGGAGCCAAGCUUCGGCGCCUGCGCCGAUGUAGGUGUAGUGACUAGACGGCACCCACCUAAGGCUAACGCUAUGGUGAAGGCAUAGUCAAGGGAGCGGCGAAAGUCACACAAACCGG, the reverse-splicing fitness was found to be 0.00203.

In the case of GUGCCUUGCGCCGGGAAACCACGCAAGGGAUGGUGUCAAAUUCGGCGAAACCUAAGCGCCCGCCCGGGCGUAUGGCAACGCCGAGCCAAGCUUCGGCGCCUGCGCCGAUGUAGGUGUAGAGACUAGACGGCACCCACCUAAGGCAAACGUUAUGGUGAAGGCAUAGUCAAGGGAGAGGCGAAAGUCACACAAACCGG, the reverse-splicing fitness was 0.015.

For the variant GUGCCUUGCGCCGGGAAACCACGCAAGGGAUGGUGUCAAAUUCGGCGAAACCUAAGCGCCCGCCCGGGCGUAUGGCAACGCUGAGCCAAGCUUCGGCGCCUGCGCCGAUGUAGGUGUAGGGACUAGACGGCACCCACCUAAGGCGAACGAUAUGGUGAAGGCAUAGUCAAGGGAGAGGCGAAAGUCACACAAACCGG, the reverse-splicing fitness amounted to 0.0153.

Take GUGCCUUGCGCCGGGAAACCACGCAAGGGAUGGUGUCAAAUUCGGCGAAACCUAAGCGCCCGCCCGGGCGUAUGGCAACGCGGAGCCAAGCUUCGGCGCCUGCGCCGAUGCAGGUGUAGAGACUAGACGGCACCCACCUAAGGCCAACGUUAUGGUGAAGGCAUAGUCCAGGGAGGGGCGAAAGUCACACAAACCGG: the reverse-splicing fitness worked out at 0.0162.

On to GUGCCUUGCGCCGGGAAACCACGCAAGGGAUGGUGUCAAAUUCGGCGAAACCUAAGCGCCCGCCCGGGCGUAUGGCAACGCAGAGCCAAGCUUCGGCGCCUGCGCCGAUGCAGGUGUAGGGACUAGACGGCACCCACCUAAGGCGAACGUUAUGGUGAAGGCAUAGUCAAGGGAGGGGCGAAAGUCACACAAACCGG, for which the reverse-splicing fitness came out at 0.00613.

In the case of GUGCCUUGCGCCGGGAAACCACGCAAGGGAUGGUGUCAAAUUCGGCGAAACCUAAGCGCCCGCCCGGGCGUAUGGCAACGCCGAGCCAAGCUUCGGCGCCUGCGCCGAUGCAGGUGUAGGGACUAGACGGCACCCACCUAAGGCGAACGAUAUGGUGAAGGCAUAGUCAAGGGAGUGGCGAAAGUCACACAAACCGG, the reverse-splicing fitness worked out at 0.02.

With GUGCCUUGCGCCGGGAAACCACGCAAGGGAUGGUGUCAAAUUCGGCGAAACCUAAGCGCCCGCCCGGGCGUAUGGCAACGCGGAGCCAAGCUUCGGCGCCUGCGCCGAUGGAGGUGUAGAGACUAGACGGCACCCACCUAAGGCGAACGUUAUGGUGAAGGCAUAGUCUAGGGAGAGGCGAAAGUCACACAAACCGG, the reverse-splicing fitness was found to be 0.0152.

Turning to GUGCCUUGCGCCGGGAAACCACGCAAGGGAUGGUGUCAAAUUCGGCGAAACCUAAGCGCCCGCCCGGGCGUAUGGCAACGCUGAGCCAAGCUUCGGCGCCUGCGCCGAUGCAGGUGUAGGGACUAGACGGCACCCACCUAAGGCAAACGUUAUGGUGAAGGCAUAGUCAAGGGAGUGGCGAAAGUCACACAAACCGG, the reverse-splicing fitness came to 0.00877.
